Measured values published in patent publication US20160311868A1.

How the values were obtained:
[1] = molecular target: TgMyoA heavy chain with C-terminal Bio-tag and FLAG-tag (TgMyoA-cBio-cFLAG) (Toxoplasma gondii) (UniProt O00934); test: cell-based or functional assay

Substance | speed of actin movement, in vitro motility assay (TgMyoA with TgMLC1 only) [1] [µm/s] | Km for actin, steady-state actin-activated ATPase (skeletal muscle actin)
TgMLC1, Toxoplasma gondii myosin light chain MLC1 (regulatory light chain), untagged | 1.5 | –
TgMyoA expressed with both light chains (TgMyoA heavy chain with bound TgMLC1 and TgELC1) | – | a Km for actin of 136±22 µM at 30 °C
